Source: patent US20130123350, “NUCLEIC ACID MOLECULE CAPABLE OF BINDING TO c-MET AND USE THEREOF” (KANAGAWA PREFECTURAL HOSPITAL ORGANIZATION, published 2013)

Legend:
[1] = biological target: T1, rec-cMet (Recombinant Human HGF R/c-MET/Fc Chimera) (Homo sapiens, UniProt P08581;P08581 SEQ:1-283,SEQ:1-625); experiment: SPR; excellent binding; rec-cMet 60 nM; settings: tags: C-terminal HIEGRMD linker, human IgG Fc (100-330), 6xHis; R&D Systems; chain copies: 2 (inferred, Fc chimera)
Description: (§1) The binding ability of each of the RNA aptamers to the rec-cMet was examined in the same manner as in Example 5, except that the fluorinated RNA aptamers were used. The concentration of the rec-cMet was set to 60 nmol/L. With the time point at which the introduction of the rec-cMet to the chip was started being 0 seconds, introduction of a buffer was started 60 seconds later. As a comparative example, the same negative control as in Example 6 was used.
(§2) FIG. 12 is a graph showing the binding ability of each of the RNA aptamers to the rec-cMet. In FIG. 12, the vertical axis indicates the signal intensity (RU) measured with BIACORE (registered trademark) X. The signal intensity shown in the graph is a value measured at the 60th second when the buffer was introduced. […] By fluorination, these RNA aptamers had acquired RNase resistance and they also maintained the bonding force to the c-Met. Thus, it can be seen that these fluorinated RNA aptamers are particularly suitable for use in vivo and in vitro. All the RNA aptamers maintained equivalent signal values subsequent to the 60th second. Thus, it was confirmed that no decrease in binding ability occurred.

[2] = biological target: T1, rec-cMet (Recombinant Human HGF …); experiment: SPR; rec-cMet 175 nM; also ELISA signal above g1 (FIG. 7); settings: tags: C-terminal HIEGRMD linker, human IgG Fc (100-330), 6xHis; R&D Systems; chain copies: 2 (inferred, Fc chimera)
Protocol: (§3) Using these truncated RNA aptamers, the binding ability thereof to the rec-cMet was examined. The binding ability was analyzed using BIACORE (registered trademark) X (GE Healthcare) in accordance with its instructions for use, with the concentration of the rec-cMet being set to 175 nmol/L. Also, the binding ability of each of the RNA aptamers g1 and g1-trA was examined in the same manner. As a comparative example, the 40N was used, and the binding ability thereof was examined in the same manner.

[3] = biological target: T1, rec-cMet (Recombinant Human HGF …); experiment: SPR; rec-cMet 175 nM; settings: tags: C-terminal HIEGRMD linker, human IgG Fc (100-330), 6xHis; R&D Systems; chain copies: 2 (inferred, Fc chimera)
Protocol: as §3

[4] = biological target: T1, rec-cMet (Recombinant Human HGF …); experiment: SPR; best fluorinated binder; rec-cMet 60 nM; settings: tags: C-terminal HIEGRMD linker, human IgG Fc (100-330), 6xHis; R&D Systems; chain copies: 2 (inferred, Fc chimera)
Description: as §1, §2

[5] = biological target: rec-NGFR (Recombinant Human NGF R/TNFRSF16/Fc Chimera) (Homo sapiens, UniProt P08138 SEQ:1-222); experiment: ELONA; signal below 40N; settings: tags: C-terminal DIEGRMD linker, human IgG Fc (100-330), 6xHis; R&D Systems; chain copies: 2 (inferred, Fc chimera)
Protocol: (§4) Next, a 20-mer polyadenine (poly A) was added to the 3′ end of each of the RNA aptamers. Thus, poly-A-added RNA aptamers were prepared. Each of the poly-A-added RNA aptamers was denatured, and thereafter, the denatured poly-A-added RNA aptamer was mixed with a 20-mer biotinylated polythymine with its 5′ end being biotinylated (740 nmol/L), tRNA (100 μg/mL), and an RNase inhibitor (0.16 units/mL). As a result, complementary binding occurred between the poly A in the poly-A-added RNA aptamer and the polythymine (poly T) in the biotinylated polythymine, whereby a biotin-labeled RNA aptamer was produced. The biotin-labeled RNA aptamer was added to the plate, and the plate was incubated at 4° C. for 30 minutes. Subsequently, the plate was washed, and 0.1 μg/mL HRP-streptavidin (Thermo Fisher Scientific Inc., USA) was added thereto. The plate was then washed, after which a 1-Step Ultra TMB substrate (Thermo Fisher Scientific Inc., USA) was added to the plate to cause color development, and the absorbance at 450 nm was measured.
The binding ability of each of the RNA aptamers to the rec-NGFR was examined in the same manner as in Example 1, except that the rec-NGFR was bound to the plate. Also, as a comparative example, the 40N was used, and the binding ability thereof was examined in the same manner.

[6] = biological target: T1, rec-cMet (Recombinant Human HGF …); experiment: ELONA; highest binding; Table 2 misnumbers as SEQ 46; also SPR FIG. 11; settings: tags: C-terminal HIEGRMD linker, human IgG Fc (100-330), 6xHis; R&D Systems; chain copies: 2 (inferred, Fc chimera)
Protocol: (§5) An anti-IgG antibody (trade name: “Human IgG-Fc Antibody”, Bethyl Laboratories) was adsorbed on a 96-well plate (Iwaki, AGC Techno Glass Co., Ltd., Japan), and then was subjected to blocking using 1% bovine serum albumin. Subsequently, 50 μL of the 1 μg/mL rec-cMet was added to the plate. Further, Tris (20 mmol/L), sodium chloride (100 mmol/L), magnesium acetate (0.1 mmol/L) and Triton (registered trademark)-X100 (0.2%) were added to the plate so that their final concentrations would be as shown in the parentheses. The plate was incubated at room temperature for 3 hours, thus causing the rec-cMet to bind to the plate. After the incubation, the plate was washed three times with a washing solution. The composition of the washing solution was as follows: 20 mmol/L Tris, 100 mmol/L sodium chloride, 0.1 mmol/L magnesium acetate, and 0.2% Triton (registered trademark)-X100. As a control, incubation and washing were carried out in the same manner, except that 50 μL of the washing solution was added instead of 50 μL of the rec-cMet.
(§6) Next, a 20-mer polyadenine (poly A) was added to the 3′ end of each of the RNA aptamers. Thus, poly-A-added RNA aptamers were prepared. […] The plate was then washed, after which a 1-Step Ultra TMB substrate (Thermo Fisher Scientific Inc., USA) was added to the plate to cause color development, and the absorbance at 450 nm was measured.

[7] = biological target: T1, rec-cMet (Recombinant Human HGF …); experiment: ELONA; 3' polyA20/biotin-polyT; also SPR FIG. 11; settings: tags: C-terminal HIEGRMD linker, human IgG Fc (100-330), 6xHis; R&D Systems; chain copies: 2 (inferred, Fc chimera)
Protocol: as §5, §4

[8] = biological target: T1, rec-cMet (Recombinant Human HGF …); experiment: ELONA; high binding; 3' polyA20/biotin-polyT; also SPR FIG. 11; settings: tags: C-terminal HIEGRMD linker, human IgG Fc (100-330), 6xHis; R&D Systems; chain copies: 2 (inferred, Fc chimera)
Protocol: as §5, §6

[9] = biological target: T1, rec-cMet (Recombinant Human HGF …); experiment: ELONA; high binding; Table 2 misnumbers as SEQ 47; also SPR FIG. 11; settings: tags: C-terminal HIEGRMD linker, human IgG Fc (100-330), 6xHis; R&D Systems; chain copies: 2 (inferred, Fc chimera)
Protocol: as §5, §6

[10] = biological target: T1, rec-cMet (Recombinant Human HGF …); experiment: ELONA; Table 2 misnumbers as SEQ 48; also SPR FIG. 11; settings: tags: C-terminal HIEGRMD linker, human IgG Fc (100-330), 6xHis; R&D Systems; chain copies: 2 (inferred, Fc chimera)
Protocol: as §5, §6

[11] = biological target: T1, rec-cMet (Recombinant Human HGF …); experiment: ELONA; high binding; Table 2 misnumbers as SEQ 45; also SPR FIG. 11; settings: tags: C-terminal HIEGRMD linker, human IgG Fc (100-330), 6xHis; R&D Systems; chain copies: 2 (inferred, Fc chimera)
Protocol: as §5, §6

[12] = biological target: T1, rec-cMet (Recombinant Human HGF …); experiment: ELONA; high binding; 3' polyA20 hybridised to biotin-polyT; 20 mM Tris, 100 mM NaCl, 0.1 mM Mg acetate, 4 C; also SPR FIG. 11; settings: tags: C-terminal HIEGRMD linker, human IgG Fc (100-330), 6xHis; R&D Systems; chain copies: 2 (inferred, Fc chimera)
Protocol: as §5, §6

T1 sequence (P08581 25-307, change not shown, chain 1 of 2): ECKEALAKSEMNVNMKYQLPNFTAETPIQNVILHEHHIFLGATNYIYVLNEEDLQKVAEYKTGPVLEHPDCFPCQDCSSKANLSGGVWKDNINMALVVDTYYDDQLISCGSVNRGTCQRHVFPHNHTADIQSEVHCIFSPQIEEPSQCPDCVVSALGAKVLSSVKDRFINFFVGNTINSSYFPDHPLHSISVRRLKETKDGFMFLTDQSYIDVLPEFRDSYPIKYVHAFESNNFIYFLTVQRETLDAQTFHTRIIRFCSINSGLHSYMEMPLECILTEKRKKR
T1 sequence (P08581 308-932, change not shown, chain 2 of 2): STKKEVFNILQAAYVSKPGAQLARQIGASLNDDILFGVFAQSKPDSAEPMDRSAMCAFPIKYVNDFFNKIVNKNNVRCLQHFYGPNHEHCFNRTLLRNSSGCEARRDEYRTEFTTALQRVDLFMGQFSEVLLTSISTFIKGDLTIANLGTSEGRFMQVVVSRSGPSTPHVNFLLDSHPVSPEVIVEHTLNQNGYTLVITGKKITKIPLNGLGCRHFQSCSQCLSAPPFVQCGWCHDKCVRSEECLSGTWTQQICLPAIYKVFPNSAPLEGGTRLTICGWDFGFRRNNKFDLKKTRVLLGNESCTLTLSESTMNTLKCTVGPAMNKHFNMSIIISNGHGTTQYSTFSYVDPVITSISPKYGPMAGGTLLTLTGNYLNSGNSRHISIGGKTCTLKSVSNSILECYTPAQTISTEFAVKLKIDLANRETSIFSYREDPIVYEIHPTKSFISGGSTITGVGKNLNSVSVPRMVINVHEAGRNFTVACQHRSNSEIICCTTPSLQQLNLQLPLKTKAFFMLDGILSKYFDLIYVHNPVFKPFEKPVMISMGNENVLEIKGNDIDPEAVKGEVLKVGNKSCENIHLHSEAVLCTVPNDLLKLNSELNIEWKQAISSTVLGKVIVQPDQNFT
rec-NGFR (Recombinant Human NGF R/TNFRSF16/Fc Chimera), sequence (P08138 29-250, change not shown): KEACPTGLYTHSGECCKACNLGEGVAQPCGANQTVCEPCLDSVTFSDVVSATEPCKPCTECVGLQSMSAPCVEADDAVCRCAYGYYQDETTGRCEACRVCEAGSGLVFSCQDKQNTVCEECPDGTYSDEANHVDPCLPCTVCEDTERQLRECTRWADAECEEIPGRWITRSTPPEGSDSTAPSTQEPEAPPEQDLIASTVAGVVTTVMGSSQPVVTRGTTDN

B1: g25 2'-F (ssRNA)
RNA: GGGACGCUCACGUACGCUAAUAGCAACAGUUCCCAGAGGUGAUCAGGCAGCCUUAAGACAUCAGUGCCUGGACGUGCAGU
modifications: 2'-F on all C and U
- binding result [1]: binds

B2: g1-trA (ssRNA)
RNA: GGGCACUGAGAGUUUGACCAGCUAUUAAAUGGGUCGUGACUCAGUG
- Kd [2]: 8.18 nM

B3: g1-miniC (ssRNA)
RNA: GGGUGAGAGUUUGACCAGCUAUUAAAUGGGUCGUGACUCA
- binding result [3]: binds

B4: g29 2'-F (ssRNA)
RNA: GGGACGCUCACGUACGCUAAACGAGCCGUGAUUGGGUUGGCAACCCUGCUUAUGUGAGGAUCAGUGCCUGGACGUGCAGU
modifications: 2'-F on all C and U
- binding result [1]: binds

B5: g38 2'-F (ssRNA)
RNA: GGGACGCUCACGUACGCUAACCAGGAGCAUUAGACCGGGGAAAGAAGGAGUACCGUCUGGUCAGUGCCUGGACGUGCAGU
modifications: 2'-F on all C and U
- binding result [4]: binds

B6: g7 (ssRNA)
RNA: GGGACGCUCACGUACGCUAACUUGAAGUCAAGGGUAGAGUGACCAUGCAGCUCGUAGACAUCAGUGCCUGGACGUGCAGU
- binding result [5]: no binding
- binding result [6]: binds

B7: g4 (ssRNA)
RNA: GGGACGCUCACGUACGCUAAUACCGUGAUUCGGGGUGGUAUCCGGUGGACAUCCAGGUCGUCAGUGCCUGGACGUGCAGU
- binding result [5]: no binding
- binding result [7]: binds

B8: g5 (ssRNA)
RNA: GGGACGCUCACGUACGCUAAGCCCAACGAACAUUUUGAGUUUCCAGGCAGCUCAUAGACAUCAGUGCCUGGACGUGCAGU
- binding result [8]: binds
- binding result [5]: no binding

B9: g8 (ssRNA)
RNA: GGGACGCUCACGUACGCUAAGGGCACUUAAAACCAGACCGUGAUUUGCGGUUGGUCUCGCUCAGUGCCUGGACGUGCAGU
- binding result [5]: no binding
- binding result [9]: binds

B10: g1-miniA (ssRNA)
RNA: GGGACUGAGAGUUUGACCAGCUAUUAAAUGGGUCGUGACUCAGU
- Kd [3]: 7.98 nM

B11: g9 (ssRNA)
RNA: GGGACGCUCACGUACGCUAAGAUGUCUCAAUUGGUCGUGAUUGUGCUGACCACACGAACCUCAGUGCCUGGACGUGCAGU
- binding result [5]: no binding
- binding result [10]: binds

B12: g6 (ssRNA)
RNA: GGGACGCUCACGUACGCUAAUCCAGGUGUGGCGAGCCACUGUAAGAGUCGCCGUGAGGAUUCAGUGCCUGGACGUGCAGU
- binding result [5]: no binding
- binding result [11]: binds

B13: g1-miniB (ssRNA)
RNA: GGGCUGAGAGUUUGACCAGCUAUUAAAUGGGUCGUGACUCAG
- Kd [3]: 26.4 nM

B14: g2 (ssRNA)
RNA: GGGACGCUCACGUACGCUAAACCCUGGCGAUCUCCGGCCGGAUACGGGAGAACGAGGUACUCAGUGCCUGGACGUGCAGU
- binding result [5]: no binding
- binding result [7]: binds

B15: g1 (ssRNA)
RNA: GGGACGCUCACGUACGCUAAACACACUGAGAGUUUGACCAGCUAUUAAAUGGGUCGUGACUCAGUGCCUGGACGUGCAGU
- binding result [5]: no binding
- binding result [12]: binds

B16: g3 (ssRNA)
RNA: GGGACGCUCACGUACGCUAAGGGCGAAACUGUCGUGACACGGUUUGACAUGCCGGCCUUAUCAGUGCCUGGACGUGCAGU
- binding result [5]: no binding
- binding result [7]: binds
